Data from publication PMC12647621, “A de novo missense variant in MIDEAS results in increased deacetylase activity of the MiDAC HDAC complex causing a neurodevelopmental syndrome” (Nature Communications, 2025).

B1: MIDEAS 717-887 (WT) (domain or fragment, human, UniProt Q6PJG2 717-887, looked up)
chain: VSIEPRINVGSRFQAEIPLMRDRALAAADPHKADLVWQPWEDLESSREKQRQVEDLLTAACSSIFPGAGTNQELALHCLHESRGDILETLNKLLLKKPLRPHNHPLATYHYTGSDQWKMAERKLFNKGIAIYKKDFFLVQKLIQTKTVAQCVEFYYTYKKQVKIGRNGTLT
B2: MIDEAS (628-887) (domain or fragment, human, UniProt Q6PJG2 628-887, looked up)
chain: TPYQSHLRSPVRLADHPSERSFELPPYTPPPILSPVREGSGLYFNAIISTSTIPAPPPITPKSAHRTLLRTNSAEVTPPVLSVMGEATPVSIEPRINVGSRFQAEIPLMRDRALAAADPHKADLVWQPWEDLESSREKQRQVEDLLTAACSSIFPGAGTNQELALHCLHESRGDILETLNKLLLKKPLRPHNHPLATYHYTGSDQWKMAERKLFNKGIAIYKKDFFLVQKLIQTKTVAQCVEFYYTYKKQVKIGRNGTLT
B3: MIDEAS 628-887 Y654S (STP) (domain or fragment, human, UniProt Q6PJG2 628-887, looked up)
chain: TPYQSHLRSPVRLADHPSERSFELPPSTPPPILSPVREGSGLYFNAIISTSTIPAPPPITPKSAHRTLLRTNSAEVTPPVLSVMGEATPVSIEPRINVGSRFQAEIPLMRDRALAAADPHKADLVWQPWEDLESSREKQRQVEDLLTAACSSIFPGAGTNQELALHCLHESRGDILETLNKLLLKKPLRPHNHPLATYHYTGSDQWKMAERKLFNKGIAIYKKDFFLVQKLIQTKTVAQCVEFYYTYKKQVKIGRNGTLT
modifications: phosphorylation either on S654 or T655 detected on more than 41% of the peptides containing STP
B4: MIDEAS 628-887 Y654S T655A (SAP) (domain or fragment, human, UniProt Q6PJG2 628-887, looked up)
chain: TPYQSHLRSPVRLADHPSERSFELPPSAPPPILSPVREGSGLYFNAIISTSTIPAPPPITPKSAHRTLLRTNSAEVTPPVLSVMGEATPVSIEPRINVGSRFQAEIPLMRDRALAAADPHKADLVWQPWEDLESSREKQRQVEDLLTAACSSIFPGAGTNQELALHCLHESRGDILETLNKLLLKKPLRPHNHPLATYHYTGSDQWKMAERKLFNKGIAIYKKDFFLVQKLIQTKTVAQCVEFYYTYKKQVKIGRNGTLT
B5: MIDEAS 628-887 Y654S T655D (SDP) (domain or fragment, human, UniProt Q6PJG2 628-887, looked up)
chain: TPYQSHLRSPVRLADHPSERSFELPPSDPPPILSPVREGSGLYFNAIISTSTIPAPPPITPKSAHRTLLRTNSAEVTPPVLSVMGEATPVSIEPRINVGSRFQAEIPLMRDRALAAADPHKADLVWQPWEDLESSREKQRQVEDLLTAACSSIFPGAGTNQELALHCLHESRGDILETLNKLLLKKPLRPHNHPLATYHYTGSDQWKMAERKLFNKGIAIYKKDFFLVQKLIQTKTVAQCVEFYYTYKKQVKIGRNGTLT

Each binder was assayed against HDAC1 (full-length) (UniProt Q13547 1-482) (assay: cell-based or functional assay).
Sequence of HDAC1 (full-length) (Q13547 whole entry): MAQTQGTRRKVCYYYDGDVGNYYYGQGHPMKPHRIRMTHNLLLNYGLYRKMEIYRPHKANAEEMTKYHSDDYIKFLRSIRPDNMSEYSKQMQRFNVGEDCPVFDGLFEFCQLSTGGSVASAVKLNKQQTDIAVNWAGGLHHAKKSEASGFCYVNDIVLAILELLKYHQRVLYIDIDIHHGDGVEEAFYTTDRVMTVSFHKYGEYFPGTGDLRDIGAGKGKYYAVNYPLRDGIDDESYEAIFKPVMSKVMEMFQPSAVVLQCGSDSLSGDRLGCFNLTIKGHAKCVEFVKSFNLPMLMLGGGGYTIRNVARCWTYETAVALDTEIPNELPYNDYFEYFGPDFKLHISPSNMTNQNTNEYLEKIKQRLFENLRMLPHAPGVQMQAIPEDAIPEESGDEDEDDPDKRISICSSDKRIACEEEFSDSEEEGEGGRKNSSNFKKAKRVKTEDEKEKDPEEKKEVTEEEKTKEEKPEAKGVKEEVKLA

In order of falling “initial rate of deacetylation of H3K9ac peptide (100 µM) by the MiDAC complex (50 nM HDAC1), NMR assay” value:
1. B1  29.7 nM/s
2. B5  27.3 nM/s
3. B3  20.4 nM/s
4. B4  16.6 nM/s
5. B2  6.3 nM/s
